# According to the nanobody polyreactivity screen of Harvey et al. (2022):
# Experiment: yeast display, Sf9 membrane polyspecificity reagent, FACS + sequencing; frameworks hold sequencing errors
# Method in brief: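 Synthetic nanobody libraries on Saccharomyces cerevisiae BJ5465 were galactose-induced for 36–48 hours, stained 1 hour at 4 °C with 10% biotinylated, detergent-solubilized Sf9 membrane reagent and enriched on streptavidin microbeads. FACS then separated cells into low and high (top ~1%) gates by anti-HA (expression) and streptavidin (reagent binding) fluorescence. Genes were colony-PCR amplified, MiSeq 2 × 250 sequenced and CDR-length filtered. A clone's polyreactivity label is that of its gate of origin.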
row,Sequence,polyreactivity (PSR sort gate)
1,QVQLVESGGGLVQAGGSLRLSCAASGRIFVYYTMGWYRQAPGKERELVAAITGSGGSTYYADSVKGRFTISRDNAKNTVYLQMNSLKPEDTAVYYCAAQLGWWGSGYWGQGTQVTVSS,high polyreactivity
2,QVQLVESGGGLVQAGGSLRLSCAASGRTFDRNAMGWYRQAPGKEREFVAAISYRGASTYADSVKGRFTISRDNAKNTVYLQMNSLKPEDTAVYYCAARVTYYGTSGYYYWGQGTQVTVSS,high polyreactivity
3,QVQLVESGGGLDQAGGSLRLSCAASGRTFAYYTMGWYRQAPGKERELVAAITSSGGSTYYADSVKGRFTISRDNAKNTVYLQMKSLKPEDTAVYYCNAYGLRWASRLGYDYWGQGTQVTVSS,high polyreactivity
4,QVQLVESGGGLVQAGGSLRLSCAASGSIFTGYAMGWYRQAPGKERELVARITKRGGSTYYADSVKGRFTISRDNAKNTVYLQMNSLKPEDTAVYYCNADRKFPYGSYETHDYWGQGTQVTVSS,high polyreactivity
5,QVQLVESGGGLVQAGGSLRLSCAASGSTFDSYAMGWYRQAPGKERELVAAITNGGSTYYADSVKGRFTISRDNAKNTVYLQMNSLKPEDTAVYYCATDDYLLDYLYDYWGQGTQVTVSS,low polyreactivity
6,QVQLVESGGGLVQAGGSLRLSCAASGSIFYYTNTMGWYRQAPGKERELFAAISSSGGTTYADSVKGRFTISRDYSKNTVYLQMNSLKPEDSAVYYCALDCVLKTYVRGTYDYWGQGTQVTVSS,high polyreactivity
7,QVQLVESGGGLVQAGCSLRLSCAASGFTFQVYTMGSYRPAPGKERELVARISRRGGSTYYADSVKGRFTISRDNAKNTVYLQMNSLKPEDTAVYYCAADWYASSYRTYTFDYWGQGTQVTVSS,high polyreactivity
8,QVQLVESGGGLVQAGGSLRLSCAASGGTFRNNAMGWYIQAPGKERELVAAISSSGTSTYYADSVKGRFTISRDNAKNTVYLQMNSLKPEDTAVYYCNADALGSPWWDHMDYWGQGTQVTVSS,low polyreactivity
9,QVQLVESGGGLVQAGGSLRLSCAASGSIFGRNAMGWYRQAPGKERELVAGISWSGGSTYYADSVKGRFTISRDNAKNTVYLQMNSLKPEDTAVYYCAADYWTWSGFTYYNYEYWGQGTQVTVSS,high polyreactivity
10,QVQLVESGGGLVQAGGSLRLSCAASGSILYPYAMGWYRQAPGKERELVAAISRGGSTNYADSVKGRFTISRDNAKNTVYLQMNSLKPEDTAVYYCATAYTRFSQRYEYYVIYWQNDYWGQGTQVTVSS,low polyreactivity
11,QVQLVESGGGLVQAGGSLRLSCAASGSIFGTYAMGWYRQAPGKEREFVAAISWSDGSTYYADSVKGRFTISRDNAKNTVYLQMNSLIPEDTAVYYCAVRRVGSIYIDRYIYVVADYDYWGQGTQVTVSS,low polyreactivity
12,QVQLVESGGGLVQAGGSLRLSCDASGRTYTGYAIGWYRQAPGKERELVAAISKSGGRTYYADSVKGRFTISRDYAKNTVYLQMNSLKPEDTAVYYCAKVETFLQIAYRRGYDSWGQGTQVTVSS,low polyreactivity
13,QVQLVESGGGLVQAGGSLRLSCAASGSIFYRYAMGWYRQAPGKERELVAAISSTGSTYYADSVKGRFTISRDNAKNTVYLQMNSLKPEDTAVYYCAARQGFRSYRRYDYWGQGTQVTVSS,high polyreactivity
14,QVQLVESGGGLVQAGGSLRLSCAASGSIFGYNAKGWYRQAPGKERELVAAINYRGGSTYYADSVKGRFTISRDNAKNTVYLQMNSLKPEDTAVYYCAARYWKDGSTYDYWGQGTQVTVSS,high polyreactivity
15,QVQLVESGGGLVQAGGSLRLSCAASGLTFVPNARGWYRQAPGKERELVAASSNNGGRTYYADSVKGRFTISRDNAKKTVYLQMNSLKPEDTAVYYCAKYLSPGERHSYDYWGQGTQVTVSS,high polyreactivity
16,QVQLVESGGGLVQAGGSLRLSCAASGFTFLRYAMGWYRPAPGKERELVAVITYGGGSTYYADSVKGRFTISRDNAKNTVYLQMNSLKPEDTAVYYCALYPRRAGGDYWGQGTQVTVSS,high polyreactivity
17,QVQLVESGGGLVQAGGSLRLSCAASGIILDEYAMGWYRQAPGKERELVAAITWIGGSTYADSVKGRFTISRDNAKNTVYLQMNSLKPEDTAVYYCAADYPSLYVWYGYGWYKYDYWGQGTQVTVSS,low polyreactivity
